Assay results as given in patent JP2008515970A.

Biological target: ヒトVEGF (human) (UniProt P15692)
Assay: cell-based or functional assay

UniProt P15692, sequence (P15692 other isoform, or with tags, fused parts or gaps limits assumed): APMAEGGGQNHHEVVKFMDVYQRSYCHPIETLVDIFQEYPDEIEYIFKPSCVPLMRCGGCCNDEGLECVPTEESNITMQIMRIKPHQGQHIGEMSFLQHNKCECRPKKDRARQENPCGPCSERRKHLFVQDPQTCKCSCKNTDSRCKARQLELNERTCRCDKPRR

EC50 (inhibition of VEGF-dependent HUVE cell proliferation, VEGF 10 ng/ml): 15 ng/mL
Substance: VEGFR1−Fc−IL−1ra (Fc fusion)
